According to patent US20110045489A1, “Polymerases for Incorporating Modified Nucleotides” (NEW ENGLAND BIOLABS, INC., priority 2008, published 2011):

Test system: 3′-O-azidomethyl-dCTP
Experiment: Titration assay, incorporation of 3′-O-azidomethyl-dCTP
Assay type: biochemical
Conditions: 10:1 or 1:1 3′-O-azidomethyl-dCTP:dNTP, 30 minutes; for 3′-O-azidomethyl-dCTP incorporation / termination of synthesis: 72° C. (9° N) or 37° C.
Experimental: Reactions were also performed in the absence of terminators to ensure that synthesis by each DNA polymerase was sufficient to extend primers without premature termination (“dNTP” lanes). Reactions with Therminator™ (NEB, Inc., Ipswich, Mass.) and 9° N exo-L408P/Y409A/S411T DNA polymerase (SEQ ID NO:6) were incubated at 72° C. for 30 minutes. Reactions with E. coli Polymerase I (pol I) (NEB, Inc., Ipswich, Mass.), Sequenase™, (USB, Inc., Cleveland, Ohio), Mma exo- and Mma exo-L417P/Y418A/S420T were incubated at 37° C. for 30 minutes. Each band corresponds to a DNA fragment terminated by a 3′-azido-dCMP. Using a titration assay as described in Gardner and Jack (2002), the relative 3′-azido-dCTP incorporation efficiency was determined for a series of DNA polymerases.
Incorporation of 3′-O-azidomethyl-dCTP by various DNA polymerases was measured using the titration assay as described in Example 1. For each reaction, a ratio of either 10:1 or 1:1 3′-O-azidomethyl-dCTP:dNTP was used to generate a termination pattern. Each band corresponded to a DNA fragment terminated by a 3′-azido-dCMP. A control reaction lacking terminator (dNTP) which yielded large extension products gave assurance that the DNA polymerase was active, and that termination products resulted from terminator incorporation rather than incomplete polymerization. Reactions with Therminator™ (NEB, Inc., Ipswich, Mass.) and 9° N exo-L408P/Y409A/S411T DNA polymerase were incubated at 72° C. for 30 minutes. Reactions with E. coli Polymerase I (pol I) (NEB, Inc., Ipswich, Mass.), Sequenase™ (USB, Inc., Cleveland, Ohio), Mma exo- and Mma exo-L417P/Y418A/S420T were conducted at 37° C. for 30 mintues. Therminator™ (NEB, Inc., Ipswich, Mass.) DNA polymerase was assayed with a 1:1 ratio of acyCTP as control.

relative 3′-O-azidomethyl-dCTP incorporation efficiency, rank order (72° C. or 37° C., FIG. 8)	Molecule	3′-O-azidomethyl-dCTP incorporation / termination of synthesis
	E. coli DNA polymerase I (pol I): commercial E. coli DNA polymerase I (NEB, Inc.) [reference compound]	failed to terminate synthesis
greater than Sequenase™	Mma exo-: exonuclease minus DNA polymerase from Methanococcus maripaludis, SEQ ID NO:22 (protein, listed as Methanococcus maripaludis, (1)..(784) Exo-) MESLIDLDYNSDDLCIYLYLINSIIKEKDFKPYFYVNSTDKEQILEFLKDYEKKHKLDSEISKMIENIETVKKIVFDENYQEKELSKVTVKYPNNVKTVREILMEFERLYEYDIPFVRRYLIDNSVIPTSTWDFENNKKIDNKIPDFKTVSFAIAVYCNKEPNPKKDPIIMASFSSKDFNTVVSTKKFDHEKLEYVKDEKELIKRIIEILKEYDIIYTYNGDNFDFPYLKKRAESFGLELKLGKNDEKIKITKGGMNSKSYIPGRVHIDLYPIARRLLNLTKYRLENVTEALFDVKKVDVGHENIPKMWDNLDETLVEYSHQDAYYTQRIGEQFLPLEIMFSRVVNQSLYDINRMSSSQMVEYLLLKNSYKMGVIAPNRPSGKEYQKRIRSSYEGGYVKEPLKGIHEDIVSMDFLSLYPSIIMSHNLSPETIDCTCCSDEENGENEEILGHKFCKKSIGIIPKTLMDLINRRKKVKKVLREKAEKGEFDEEYQILDYEQRSIKVLANSHYGYLAFPMARWYSRDCAEITTHLGRQYIQKTIEEAENFGFKVIYADTDGFYSKWADDKEKLSKYELLEKTREFLKNINNTLPGEMELEFEGYFKRGIFVTKKKYALIDENEKITVKGLEVVRRDWSNVSKNTQKNVLNALLKEGSVENAKKVIQDTIKELKDGKVNNEDLLIHTQLTKRIEDYKTTAPHVEVAKKILKSGNRVNTGDVISYIITSGNKSISERAEILENAKNYDTNYYIENQILPPVIRLMEALGITKDELKDSKKQYTLHHFLK	failed to terminate synthesis
